Measured values as given in patent publication US10471162B2, “Collagen targeted imaging probes” (priority 2014, dated 2019).

Columns and labels:
[1] = tested on: pulmonary fibrosis, C57/BL6 mice (bleomycin or sham); settings: mouse, in vivo
Experimental: Pulmonary fibrosis was induced in 7-8-week-old male C57/BL6 mice by transtracheal administration of bleomycin (BM; 2.5 U/kg) in 50 μL of PBS under direct vision using a small cervical incision. Sham animals received only PBS. Animals were placed in a small-animal PET/SPECT/CT scanner (Triumph; TriFoil Imaging), equipped with inhalation anesthesia and heating pad. Each animal was anesthetized with isoflurane (4% for induction, 1-1.5% for maintenance in medical air). After placement of an in-dwelling catheter in the femoral vein for probe administration, mice were positioned in the PET-CT and the probe was given as a bolus as the PET acquisition began. Mice were imaged continuously by PET for 120 minutes. […] Instrument calibration was performed with phantoms containing small known amounts of radioactivity. […] Reconstructed PET/CT data were quantitatively evaluated using AMIDE software package (Loening and Gambhir, 2003). […] The radioactivity concentration within organs was obtained from mean pixel values within the VOI volume and converted to counts per milliliter per minute and then divided by the injected dose (ID) to obtain an imaging VOI-derived percentage of the injected radioactive dose per cubic centimeter of tissue (% ID/cc). […] Instrument calibration was performed with phantoms containing small known amount of radioactivity. […]

in vivo = test: in vivo; design: species or system mouse; settings: male, C57Bl/6, mouse, iv, total radioactivity, Biodistribution % ID/g
Experimental: (§1) Adult male C57Bl/6 mice were administered a single intratracheal dose of low dose bleomycin at 0.1 U/kg (low dose), in a total volume of 50 μl sterile saline. FTY720 was administered intraperitoneally to the mice at 1 mg/kg three times a week. Animals were placed in a small-animal PET/SPECT/CT scanner (Triumph; TriFoil Imaging), equipped with inhalation anesthesia and heating pad. Each animal was anesthetized with isoflurane (4% for induction, 2-2.5% for maintenance in medical air) and body temperature was kept at 37-38° C. using a heating pad. The femoral vein was cannulated for intravenous delivery of the PET agent. Each mouse was injected with approximately 0.1 mL and 20-50 μCi of ^64Cu-CBP(n), 0.1 mL and 20-50 μCi of ^68Ga-CBP(n) and 0.1 mL and 10-20 μCi of Al^18F-CBP(n) in a 18 mM solution of sucrose in water, followed by saline flush. […] The lungs, blood, urine, heart, liver, left rectus femoris muscle, spleen, small intestine, kidneys, left femur bone were collected from all animals. The tissues were weighed, and radioactivity in each tissue was measured on a gamma counter (CobraII Auto gamma; Packard). The radioactivity in the lung was reported as percent injected dose per gram corrected with the average sham weight, which was calculated by dividing the counts of ^64Cu per average sham tissue weight in gram by the total of counts of the injected dose. The radioactivity in every other tissue was reported as percent injected dose per gram (% ID/g), which was calculated by dividing the counts of ^64Cu per gram of tissue by the total of counts of the injected dose. A p-value of less than 0.05 was considered significant. Uncertainties are expressed as the standard error of the mean.

[2] = tested on: pulmonary fibrosis, C57Bl/6 mice (low dose bleomycin, FTY720); test: in vivo; design: species or system mouse
Experimental: as §1

[3] = male, C57Bl/6, mouse, iv, 2.5 h

CC(C)C[C@H](NC(=O)[C@@H]1CSSC[C@H](NC(=O)[C@H](Cc2c[nH]cn2)NC(=O)[C@H](Cc2c[nH]c3ccccc23)NC(=O)[C@H](CCCCNC(=O)CNC(=O)CCC(C(=O)O)N2CCN(CC(=O)O)CCN(CC(=O)O)CC2)NC(=O)CNC(=O)CCC(C(=O)O)N2CCN(CC(=O)O)CCN(CC(=O)O)CC2)C(=O)N[C@@H]([C@@H](C)O)C(=O)N[C@@H]([C@@H](C)O)C(=O)N[C@@H](CCCCNC(=O)CCC(C(=O)O)N2CCN(CC(=O)O)CCN(CC(=O)O)CC2)C(=O)N[C@@H](Cc2ccccc2)C(=O)N2CCC[C@H]2C(=O)N[C@@H](Cc2c[nH]cn2)C(=O)N[C@@H](Cc2c[nH]cn2)C(=O)N[C@@H](Cc2ccc(O)cc2)C(=O)N1)C(=O)N[C@@H](Cc1ccc(O)cc1)C(=O)N[C@@H](Cc1ccc(-c2ccccc2)cc1)C(N)=O (single isomer, unassigned) [CBP8]
Mean PET activity in heart and muscle, BM-treated vs sham, in words [1]: not significantly different
tissue uptake at 2.5 h (in vivo; blood): 0.347 ± 0.017 %ID/g
tissue uptake at 2.5 h (in vivo; heart): 0.293 ± 0.024 %ID/g
tissue uptake at 2.5 h (in vivo; kidney): 42.7 ± 1.42 %ID/g
tissue uptake at 2.5 h (in vivo; liver): 1.44 ± 0.108 %ID/g
tissue uptake at 2.5 h (in vivo; small intest.): 0.477 ± 0.052 %ID/g
tissue uptake at 2.5 h (in vivo; spleen): 0.47 ± 0.045 %ID/g
Biodistribution % ID/g, blood [2, 3]: 0.523 ± 0.062 % ID/g
Biodistribution % ID/g, heart [2, 3]: 0.340 ± 0.038 % ID/g
Biodistribution % ID/g, kidney [2, 3]: 50.36 ± 2.756 % ID/g
Biodistribution % ID/g, liver [2, 3]: 1.998 ± 0.117 % ID/g
Biodistribution % ID/g, small intest. [2, 3]: 0.690 ± 0.064 % ID/g
Biodistribution % ID/g, spleen [2, 3]: 0.925 ± 0.126 % ID/g
organ uptake between groups, except lungs, in words ([2]; mouse): not significantly different
